Laboratory results as given in patent US20030170203A1 (Human Genome Sciences, published 2003).

T1: recombinant, untagged TNF-gamma-beta protein (aa 72-251) from E. coli (human, UniProt O95150 72-251)
T1 construct: Purified from E. coli
T1 sequence (looked up): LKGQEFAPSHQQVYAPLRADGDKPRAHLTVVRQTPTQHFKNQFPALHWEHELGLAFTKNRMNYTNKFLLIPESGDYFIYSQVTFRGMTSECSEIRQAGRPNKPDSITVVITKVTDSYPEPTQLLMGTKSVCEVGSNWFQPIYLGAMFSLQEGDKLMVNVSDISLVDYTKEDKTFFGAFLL

T2: full length TNF-gamma-beta expressed on the cell surface (human, UniProt O95150 1-251)
T2 construct: whole, on cells; also called TNF-gamma-beta expressing cells
T2 sequence (looked up): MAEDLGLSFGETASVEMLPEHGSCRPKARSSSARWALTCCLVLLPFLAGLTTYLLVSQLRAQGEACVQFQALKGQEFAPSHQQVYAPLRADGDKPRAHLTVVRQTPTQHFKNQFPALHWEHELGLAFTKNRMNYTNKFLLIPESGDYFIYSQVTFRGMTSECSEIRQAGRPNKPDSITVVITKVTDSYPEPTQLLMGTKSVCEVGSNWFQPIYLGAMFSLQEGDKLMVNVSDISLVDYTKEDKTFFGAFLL

T3: FLAG-tagged soluble form of TNF-gamma-beta (aa 72-251) (human, UniProt O95150 72-251)
T3 construct: also called FLAG-TL1β; FLAG-TNF-gamma-beta; not shown: FLAG tag of vector pFLAGCMV1
T3 sequence (looked up): T1 sequence (looked up)

B1: BCMA-Fc (Fc fusion, human, UniProt Q02223 1-54, looked up)
chain: MLQMAGQCSQNEYFDSLLHACIPCQLRCSSNTPPLTCQRYCNASVTNSVKGTNA
notes: Control receptor surface of the BIAcore analysis; not shown: Fc
B2: extracellular domain of human TACI (aa 1-159) fused at its C-terminus to the Fc domain of human IgG1 (Fc fusion, UniProt O14836 1-159, looked up, not shown: a dimerising Fc or GST)
chain: MSGLGRSRRGGRSRVDQEERFPQGLWTGVAMRSCPEEQYWDPLLGTCMSCKTICNHQSQRTCAAFCRSLSCRKEQGKFYDHLLRDCISCASICGQHPKQCAYFCENKLRSPVNLPPELRRQRSGEVENNSDNSGRYQGLEHRGSEASPALPGLKLSADQ
notes: range 1-159; also called TACI-Fc

Key:
[1] = target: T1, recombinant, untagged TNF-gamma-beta …; experiment: BIAcore 3000 (SPR), receptor-Fc amine-coupled to CM5 chip, TNF-gamma-beta in flow
Experimental: TNFR-Fc were covalently immobilized to the BIAcore sensor chip (CM5 chip) via amine groups using N-ethyl-N′-(dimethylaminopropyl) carbodiimide/N-hydroxysuccinimide chemistry. […] The amount of bound protein was determined during washing of the flow cell with HBS buffer (10 mM HEPES, pH 7.4, 150 mM NaCl, 3.4 mM EDTA, 0.005% Surfactant P20). The flow cell surface was regenerated by displacing bound protein by washing with 20 microliters of 10 mM glycine-HCl, pH 2.3. For kinetic analysis, the on and off rates were determined using the kinetic evaluation program in BIAevaluation 3 software using a 1:1 binding model and the global analysis method.

[2] = target: T2, full length TNF-gamma-beta expressed on …; experiment: flow cytometry on HEK293F stable transfectants expressing full length TNF-gamma-beta
Experimental: TR6 has been previously described as a decoy receptor (Pitti et al., Nature 396:699-703 (1998); Yu et al., J. Biol Chem. 274:13733-6 (1999)) capable of competing with Fas and HveA for binding of FasL and LIGHT, respectively.
One million cells, in 0.1 ml of FACS buffer (PBS, 0.1% BSA, 0.1% NaN₃), were incubated with 0.1-1 microgram of protein or antibody at RT for 15 min. The cells were washed with 3 ml of FACS buffer, reacted with biotinylated primary antibody, and stained with PE-conjugated secondary antibody at RT for 15 min. Cells were then washed again, resuspended in 0.5 microgram/ml of propidium iodide, and live cells were gated and analyzed on a FACScan using the CellQuest software (BD Biosciences).

[3] = target: T3, FLAG-tagged soluble form of …; experiment: co-immunoprecipitation with protein A-Sepharose, anti-Flag M2 immunoblot
Description: The beads were then precipitated and washed extensively with PBST buffer (PBS, 0.5% Triton X-100) before boiled in SDS-sample buffer. Proteins were resolved on 4-20% Tris-Glycine gels (NOVEX), transferred to nitrocellulose membranes, and blotted with anti-Flag M2 monoclonal antibody (1 microgram/ml, Sigma) and horseradish peroxidase (HRP)-conjugated goat anti-mouse IgG antibody (0.5 microgram/ml).

Binder	binding result [1]	binding result [2]	binding result [3]
B1	no binding (tested: 3-370 nM)		
B2		no binding	no binding
